Assay results from PMC10936776, “Structural and functional characterization of AfsR, an SARP family transcriptional activator of antibiotic biosynthesis in Streptomyces” (PLOS Biology, 2024).
Substitutions are numbered along the chain they refer to. Names may count otherwise.

B1: AfsR (dephosphorylated AfsR) (Streptomyces coelicolor A3(2)) (protein)
chain: MDGGPRVPEQRRPGFPAEEEESGALRFGVLGPVRAWRDGETLATGSPQQRALLAALLLREGRTATAGELIDALWGEEPPSQALAAVRTYASRLRKVLDPGVLVSESGGYAVRGLAEGALDLARAQDLASAAEKARSAGDLCHARDLLRRALDLWDGEVLAGVPGPYAQTQRVRLGEWRLQLLETRLDMDLDQGCHAEAVSELTALTAAHPLRERLRELLMLALYRSGRQAEALAVYADTRRLLADELGVDPRPGLQELQQRILQADPALAELSAATAETATATLRPAQLPATVSDFTGRAAFVRELSDVLSAASGESASGRVMAVSALAGIGGVGKTTLAVHVAHRARAAFPDGQLYVDLQGAGARPAEPETVLGSFLRALGTADSAIPDSLEERAALYRSVLDGRRVLVLLDNARDAAQVRPLLPGTDGCAALVTARVRMVDLAGAHLVDLDVMAPEEALALFTKIVGEERVASERQAALDVVGACGFLPLAIRIAASRLAARRTWTVSVLAAKLADERRRLDELQAGDQAVEATFELGYGQLEPAQARAFRLLGLADGPDISLAAAAAVLDLPAQDTEDLLESLVDTSLLESAAPGRYRFHDLVRLYARACAERTERDGNAPSERGAALSRLLDFYLATAAGVYAIERPGDRLVDGLEPTEYPGLTFTEGSAALDWLYTEAAPLLACVRQSAGTARLRRAVDLLWAAKDLTESGANSHQYEATARAMCDATGSAADTRAEGRARTVLSDVLLVSGRIEHAEEEARLAMRLAGSAEDSAAVSWVANNRGLVCLHQRRYAEGKGLFHQAIAGFRATDNRAGEASALSNLSRAQLGMGNVAEAVDIARQGLAVYAELGRTMRLANGHFALGVALTRAGRHEEALGEFAEALDLFGDHRQRLWEGATNFRLAEVHLAAGRPSSAAQHAEQALALGCIGGDRMRGNVLALLGRALSALGQADRARACWREALSLYEQHDAQEVGEVRALLARSVAR
notes: full-length, 993 residues, pET28a (His-tagged), E. coli BL21(DE3), Ni-NTA and SEC; wild type treated with lambda phosphatase (E. coli protein carries pT337); mainly monomer
B2: phosphorylated AfsR (phos-AfsR) (Streptomyces coelicolor A3(2)) (protein)
chain: B1 chain
notes: full-length, 993 residues, pET28a (His-tagged), E. coli BL21(DE3); dephosphorylated, then phosphorylated in vitro by AfsKΔC (pS22, pT337, pS391, pT506, pS953 by MS), SEC
B3: AfsR 4E mutant (S391E/T337E/T506E/S953E) (natural protein, S. coelicolor, UniProt P25941 1-993, looked up)
chain: B1 chain with T337E, S391E, T506E, S953E
notes: AfsR, S. coelicolor, with glutamate substitutions at all 4 phosphorylation sites of NOD and TPR; Likely made like wild-type AfsR (pET28a, E. coli BL21(DE3))
B4: AfsR T337A mutant (natural protein, S. coelicolor, UniProt P25941 1-993, looked up)
chain: B1 chain with T337A
notes: AfsR, S. coelicolor, full-length protein with T337A; Preincubated with afsS promoter DNA and 1 mM ATPγS for AfsR-TIC; Vector and host of the mutant are surmised from the wild type
B5: Streptomyces coelicolor RNA polymerase α subunit (natural protein, S. coelicolor)
chain: MLIAQRPSLTEEVVDEFRSRFVIEPLEPGFGYTLGNSLRRTLLSSIPGAAVTSIRIDGVLHEFTTVPGVKEDVTDLILNIKQLVVSSEHDEPVVMYLRKQGPGLVTAADIAPPAGVEVHNPDLVLATLNGKGKLEMELTVERGRGYVSAVQNKQVGQEIGRIPVDSIYSPVLKVTYKVEATRVEQRTDFDKLIVDVETKQAMRPRDAMASAGKTLVELFGLARELNIDAEGIDMGPSPTDAALAADLALPIEELELTVRSYNCLKREGIHSVGELVARSEADLLDIRNFGAKSIDEVKAKLAGMGLALKDSPPGFDPTAAADAFGADDDADAGFVETEQY
notes: RNA polymerase subunit alpha, S. coelicolor; Stood in the assay as a subunit of the RNAP core in the holoenzyme; density for one αCTD is seen; also called αCTD (C-terminal domain of the α subunit); source: S. coelicolor RNAP purified as described previously [37]
B6: Streptomyces coelicolor RNA polymerase sigma factor σ^HrdB (natural protein, S. coelicolor)
chain: MSASTSRTLPPEIAESVSVMALIERGKAEGQIAGDDVRRAFEADQIPATQWKNVLRSLNQILEEEGVTLMVSAAEPKRTRKSVAAKSPAKRTATKAVAAKPVTSRKATAPAAPAAPATEPAAVEEEAPAKKAAAKKTTAKKATAKKTTAKKAAAKKTTAKKEDGELLEDEATEEPKAATEEPEGTENAGFVLSDEDEDDAPAQQVAAAGATADPVKDYLKQIGKVPLLNAEQEVELAKRIEAGLFAEDKLANSDKLAPKLKRELEIIAEDGRRAKNHLLEANLRLVVSLAKRYTGRGMLFLDLIQEGNLGLIRAVEKFDYTKGYKFSTYATWWIRQAITRAMADQARTIRIPVHMVEVINKLARVQRQMLQDLGREPTPEELAKELDMTPEKVIEVQKYGREPISLHTPLGEDGDSEFGDLIEDSEAVVPADAVSFTLLQEQLHSVLDTLSEREAGVVSMRFGLTDGQPKTLDEIGKVYGVTRERIRQIESKTMSKLRHPSRSQVLRDYLD
notes: principal sigma factor HrdB, S. coelicolor; region 1.1 disordered in the map; Stood in the assay as part of the RNAP σ^HrdB-holoenzyme; also called σ subunit; σ R4 (region 4); source: purified as described previously [37]

Columns and labels:
[1] = biological target: T1, AfsR (dephosphorylated AfsR) (Streptomyces coelicolor, UniProt P25941); assay: in vitro MangoIII transcription assay after preincubation; format: biochemical; settings: 500 nM dephosphorylated AfsR, 1 mM GTP preincubation 10 min 30 °C, RNAP-σHrdB, RbpA, CarD; activator
T1 construct: full-length, 993 residues, pET28a (His-tagged), E. coli BL21(DE3), Ni-NTA and SEC; wild type treated with lambda phosphatase (E. coli protein carries pT337); mainly monomer

[2] = substrate: Nc1ncnc2c1ncn2[C@@H]1O[C@H](COP(=O)(O)OP(=O)(O)OP(=O)(O)O)[C@@H](O)[C@H]1O; assay: Malachite green phosphate ATPase assay; format: biochemical, Streptomyces coelicolor; settings: 5 μM protein, 20 mM Tris-HCl pH 7.5, 150 mM NaCl, 5 mM MgCl2, 30 min
[3] = biological target: the molecule itself; assay: SEC; Superdex 200; 20 mM Tris pH 8.0, 150 mM NaCl, 5% glycerol; protein alone, without DNA
[4] = biological target: T2, Streptomyces coelicolor RNA polymerase β subunit (S. coelicolor, UniProt Q9L0L0 1-1161); assay: cryo-EM structure; AfsR_(T337A)-TIC: 32 uM AfsR_(T337A) preincubated with 5 uM afsS promoter DNA and 1 mM ATPγS, mixed with RNAP core, σ^HrdB, CarD, RbpA; assembling buffer; Superose 6; nominal resolution 3.63 Å, SARP region 5.10 Å; settings: both partners purified
T2 construct: RNA polymerase subunit beta, S. coelicolor; Stood in the assay as a subunit of the RNAP core in the holoenzyme; also called RNAP β; β flap; source: S. coelicolor RNAP purified as described previously [37]

[5] = biological target: T3, Streptomyces coelicolor RNA polymerase β′ subunit (S. coelicolor, UniProt Q8CJT1 1-1299); assay: as above; settings: both partners purified
T3 construct: RNA polymerase subunit beta', S. coelicolor; Stood in the assay as a subunit of the RNAP core in the holoenzyme; also called RNAP β′; β′ ZBD; source: S. coelicolor RNAP purified as described previously [37]

[6] = biological target: the molecule itself; assay: as above
AfsR T337A mutant = biological target: B4; assay: as above; settings: both partners purified
[7] = phosphomimetic 4E mutant, phosphatase treatment not stated

Molecule: Nc1nc2c(ncn2[C@@H]2O[C@H](COP(=O)(O)OP(=O)(O)OP(=O)(O)O)[C@@H](O)[C@H]2O)c(=O)[nH]1 [GTP]
transcription activation [1]: preincubating dephosphorylated AfsR with ATP or GTP significantly enhances its transcription activation

Molecule: B1
Km ([2]; dephosphorylated): 1160 ± 231 µM
kcat ([2]; dephosphorylated): 0.0453 ± 0.00356 s⁻¹

Molecule: B2
Km ([2]; phosphorylated by AfsKΔC): 767 ± 163 µM
kcat ([2]; phosphorylated by AfsKΔC): 0.070 ± 0.00515 s⁻¹

Molecule: B3
Km [2, 7]: 995 ± 152 µM
kcat [2, 7]: 0.147 ± 0.00841 s⁻¹
binding result [3]: binds

Molecule: B4
binding result [4]: binds
binding result [5]: binds
binding result [6]: binds

Molecule: B5
binding result (AfsR T337A mutant): binds

Molecule: B6
binding result (AfsR T337A mutant): binds
